# Measured values published in patent publication US20180155451A1 (published 2018).
# T1: FcγRIIb extracellular domain with C-terminal His tag (human, UniProt P31994 43-217)
# T1 construct: extracellular domain; expressed in FreeStyle293 cells; analyte in the Biacore assay; also called FcgRIIb; 2b; not shown: His tag at the C terminus
# T1 sequence (looked up): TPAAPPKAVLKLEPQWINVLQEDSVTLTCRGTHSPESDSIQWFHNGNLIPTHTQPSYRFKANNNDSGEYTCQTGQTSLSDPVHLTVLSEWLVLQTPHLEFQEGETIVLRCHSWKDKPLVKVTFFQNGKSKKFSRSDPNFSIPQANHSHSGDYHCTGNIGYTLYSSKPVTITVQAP
# B1: GpH7-A5/GpH7-B3 variant K326_07I/GpL16-k0 (antibody, human IgG1, kappa)
# heavy 1: not shown
# heavy 2: not shown
# light: DIVMTQSPLSLPVTPGEPASISCQASESLVHSNRNTYLHWYLQKPGQSPQLLIYKVSNRFSGVPDRFSGSGSGTDFTLKISRVEAEDVGVYYCSQNTHVPPTFGQGTKVEIERTVAAPSVFIFPPSDEQLKSGTASVVCLLNNFYPREAKVQWKVDNALQSGNSQESVTEQDSKDSTYSLSSTLTLSKADYEKHKVYACEVTHQGLSSPVTKSFNRGEC
# notes: heterodimerized; mutation in the B3 H chain only; also called He Ab K326_07I
# B2: GpH7-A5/GpH7-B3 variant K326_14T/GpL16-k0 (antibody, human IgG1, kappa)
# heavy 1: not shown
# heavy 2: not shown
# light: B1 light
# notes: heterodimerized; mutation in the B3 H chain only; also called He Ab K326_14T
# B3: GpH7-A5/GpH7-B3 variant K326_16H/GpL16-k0 (antibody, human IgG1, kappa)
# heavy 1: not shown
# heavy 2: not shown
# light: B1 light
# notes: heterodimerized; mutation in the B3 H chain only; also called He Ab K326_16H
# B4: GpH7-A5/GpH7-B3 variant K326_15Y/GpL16-k0 (antibody, human IgG1, kappa)
# heavy 1: not shown
# heavy 2: not shown
# light: B1 light
# notes: heterodimerized; mutation in the B3 H chain only; also called He Ab K326_15Y
# B5: GpH7-A5/GpH7-B3 variant I336_08L/GpL16-k0 (antibody, human IgG1, kappa)
# heavy 1: not shown
# heavy 2: not shown
# light: B1 light
# notes: heterodimerized; mutation in the B3 H chain only; also called He Ab I336_08L
# B6: GpH7-A5/GpH7-B3 variant G237_04F/GpL16-k0 (antibody, human IgG1, kappa)
# heavy 1: not shown
# heavy 2: not shown
# light: B1 light
# notes: heterodimerized; mutation in the B3 H chain only; also called He Ab G237_04F
# B7: GpH7-A5/GpH7-B3 variant I332_15Y/GpL16-k0 (antibody, human IgG1, kappa)
# heavy 1: not shown
# heavy 2: not shown
# light: B1 light
# notes: heterodimerized; mutation in the B3 H chain only; also called He Ab I332_15Y
# B8: GpH7-A5/GpH7-B3 variant K326_19Q/GpL16-k0 (antibody, human IgG1, kappa)
# heavy 1: not shown
# heavy 2: not shown
# light: B1 light
# notes: heterodimerized; mutation in the B3 H chain only; label printed K326_190, read as K326_19Q; also called He Ab K326_19Q
# B9: GpH7-A5/GpH7-B3 variant H268_18N/GpL16-k0 (antibody, human IgG1, kappa)
# heavy 1: not shown
# heavy 2: not shown
# light: B1 light
# notes: heterodimerized; mutation in the B3 H chain only; also called He Ab H268_18N
# B10: GpH7-A5/GpH7-B3 variant K326_20W/GpL16-k0 (antibody, human IgG1, kappa)
# heavy 1: not shown
# heavy 2: not shown
# light: B1 light
# notes: heterodimerized; mutation in the B3 H chain only; also called He Ab K326_20W
# B11: GpH7-A5/GpH7-B3 variant K334_03V/GpL16-k0 (antibody, human IgG1, kappa)
# heavy 1: not shown
# heavy 2: not shown
# light: B1 light
# notes: heterodimerized; mutation in the B3 H chain only; also called He Ab K334_03V
# B12: GpH7-A5/GpH7-B3 variant H268_13S/GpL16-k0 (antibody, human IgG1, kappa)
# heavy 1: not shown
# heavy 2: not shown
# light: B1 light
# notes: heterodimerized; mutation in the B3 H chain only; also called He Ab H268_13S
# B13: GpH7-A5/GpH7-B3 variant I332_09D/GpL16-k0 (antibody, human IgG1, kappa)
# heavy 1: not shown
# heavy 2: not shown
# light: B1 light
# notes: heterodimerized; mutation in the B3 H chain only; also called He Ab I332_09D
# B14: GpH7-A5/GpH7-B3 variant P238_04F/GpL16-k0 (antibody, human IgG1, kappa)
# heavy 1: not shown
# heavy 2: not shown
# light: B1 light
# notes: heterodimerized; mutation in the B3 H chain only; also called He Ab P238_04F
# B15: GpH7-A5/GpH7-B3 variant L328_02A/GpL16-k0 (antibody, human IgG1, kappa)
# heavy 1: not shown
# heavy 2: not shown
# light: B1 light
# notes: heterodimerized; mutation in the B3 H chain only; also called He Ab L328_02A
# B16: GpH7-A5/GpH7-B3 variant K326_04F/GpL16-k0 (antibody, human IgG1, kappa)
# heavy 1: not shown
# heavy 2: not shown
# light: B1 light
# notes: heterodimerized; mutation in the B3 H chain only; also called He Ab K326_04F
# B17: GpH7-A5/GpH7-B3 variant K326_10E/GpL16-k0 (antibody, human IgG1, kappa)
# heavy 1: not shown
# heavy 2: not shown
# light: B1 light
# notes: heterodimerized; mutation in the B3 H chain only; also called He Ab K326_10E
# B18: GpH7-A5/GpH7-B3 variant K334_14T/GpL16-k0 (antibody, human IgG1, kappa)
# heavy 1: not shown
# heavy 2: not shown
# light: B1 light
# notes: heterodimerized; mutation in the B3 H chain only; also called He Ab K334_14T
# B19: GpH7-A5/GpH7-B3 variant K326_08L/GpL16-k0 (antibody, human IgG1, kappa)
# heavy 1: not shown
# heavy 2: not shown
# light: B1 light
# notes: heterodimerized; mutation in the B3 H chain only; also called He Ab K326_08L
# B20: GpH7-A5/GpH7-B3 variant A330_01G/GpL16-k0 (antibody, human IgG1, kappa)
# heavy 1: not shown
# heavy 2: not shown
# light: B1 light
# notes: heterodimerized; mutation in the B3 H chain only; also called He Ab A330_01G
# B21: GpH7-A5/GpH7-B3 variant K334_10E/GpL16-k0 (antibody, human IgG1, kappa)
# heavy 1: not shown
# heavy 2: not shown
# light: B1 light
# notes: heterodimerized; mutation in the B3 H chain only; also called He Ab K334_10E
# B22: GpH7-A5/GpH7-B3 variant A327_10E/GpL16-k0 (antibody, human IgG1, kappa)
# heavy 1: not shown
# heavy 2: not shown
# light: B1 light
# notes: heterodimerized; mutation in the B3 H chain only; also called He Ab A327_10E
# B23: GpH7-A5/GpH7-B3 variant K334_05P/GpL16-k0 (antibody, human IgG1, kappa)
# heavy 1: not shown
# heavy 2: not shown
# light: B1 light
# notes: heterodimerized; mutation in the B3 H chain only; also called He Ab K334_05P
# B24: GpH7-A5/GpH7-B3 variant L328_13S/GpL16-k0 (antibody, human IgG1, kappa)
# heavy 1: not shown
# heavy 2: not shown
# light: B1 light
# notes: heterodimerized; mutation in the B3 H chain only; also called He Ab L328_13S
# B25: GpH7-A5/GpH7-B3 variant K326_06M/GpL16-k0 (antibody, human IgG1, kappa)
# heavy 1: not shown
# heavy 2: not shown
# light: B1 light
# notes: heterodimerized; mutation in the B3 H chain only; also called He Ab K326_06M
# B26: GpH7-A5/GpH7-B3 variant L235_20W/GpL16-k0 (antibody, human IgG1, kappa)
# heavy 1: not shown
# heavy 2: not shown
# light: B1 light
# notes: heterodimerized; mutation in the B3 H chain only; also called He Ab L235_20W
# B27: GpH7-A5/GpH7-B3 variant K334_08L/GpL16-k0 (antibody, human IgG1, kappa)
# heavy 1: not shown
# heavy 2: not shown
# light: B1 light
# notes: heterodimerized; mutation in the B3 H chain only; also called He Ab K334_08L
# B28: GpH7-A5/GpH7-B3 variant K326_09D/GpL16-k0 (antibody, human IgG1, kappa)
# heavy 1: not shown
# heavy 2: not shown
# light: B1 light
# notes: heterodimerized; mutation in the B3 H chain only; also called He Ab K326_09D
# Target: T1, FcγRIIb extracellular domain with …
# Assay: SPR (Biacore), captured antibody, FcγRIIb analyte; binding relative to GpH7-A5/GpH7-B3/GpL16-k0 = 100
row,He/Con_2b,Binder
1,199 % of control,B1
2,150 % of control,B2
3,119 % of control,B3
4,159 % of control,B4
5,107 % of control,B5
6,149 % of control,B6
7,101 % of control,B7
8,139 % of control,B8
9,156 % of control,B9
10,148 % of control,B10
11,125 % of control,B11
12,160 % of control,B12
13,147 % of control,B13
14,312 % of control,B14
15,144 % of control,B15
16,155 % of control,B16
17,200 % of control,B17
18,115 % of control,B18
19,177 % of control,B19
20,104 % of control,B20
21,114 % of control,B21
22,140 % of control,B22
23,105 % of control,B23
24,149 % of control,B24
25,165 % of control,B25
26,147 % of control,B26
27,106 % of control,B27
28,193 % of control,B28
